Results on one compound are retold here after PMC5481817, “Developing Targeted Hybrid Imaging Probes by Chelator Scaffolding” (Bioconjugate chemistry, 2017).

Data set [1] in a line: physchem. It is filed as physicochemical. To be noted: buffer or solvent. On the procedure: (§1) [^68Ga]Sulfo-Cy7-FSC-MG and [^68Ga]Sulfo-Cy7-FSC-RGD (6 MBq) were diluted with phosphate buffered saline to a concentration of 1 μM. Subsequently 50 μL of this solution was added to six Eppendorf tubes containing 450 μL PBS and 500 μL octanol. The mixture was vortexed (1400 rpm) at RT for 15 min using a MS 3 basic vortexer (IKA, Staufen, Germany) followed by centrifugation for 2 min at 4500 rpm. Aliquots of 100 μL of both phases were transferred to plastic vials, measured in the γ-counter and logD values were calculated. For stability testing, radiolabeled tracers were diluted with 450 μL fresh human serum and 450 μL PBS as control to a concentration of 2 μM followed by incubation at 37 °C. After 1, 2, and 4 h (n = 3) 50 μL aliquots were precipitated with acetonitrile (1:1) and centrifuged for 2 min at 14 × 10^3 rpm. The supernatant was analyzed by radio-RP-HPLC to evaluate for decomposition and corresponding chromatograms are shown in Supporting Information. For protein binding measurement aliquots were analyzed by size exclusion chromatography using MicroSpin G-50 Columns (Sephadex G-50, GE Healthcare, Vienna, Austria) in triplicates. First, the columns were centrifuged at 750 rcf for 1 min to remove the storage buffer. After adding 25 μL of incubation solution columns were centrifuged again for 2 min with 2000 rcf. Column and eluate were measured in the γ-counter and percentages of nonprotein bound radiolabeled peptide (column) and protein bound radiotracer (eluate) were calculated.

Data set [2] relates to A431-CCK2R/A431-mock tumor xenograft-bearing BALB/c nude mice. Kind of data set: Static micro-PET/CT imaging, A431-CCK2R/A431-mock xenografts. The note with it: static PET, 60 and 120 min post-injection. Format: in vivo, mouse. On the procedure: All animal experiments were conducted in accordance with regulations and guidelines of the Czech Animal Protection Act (No. 246/1992), and with the approval of the Czech Ministry of Education, Youth, and Sports (MSMT-22421/2013–12), and the institutional Animal Welfare Committee of the Faculty of Medicine and Dentistry of Palacky University in Olomouc. The studies were performed using female 8–10-week-old athymic BALB/c nude mice (Envigo, Horst, The Netherlands). […]
Tumor xenografts were established near the front shoulder of mice by subcutaneous injection of 5 × 10^6 cells (U-87 MG) or 2 × 10^6 cells (A431-CCK2R) and the same amount of A431-mock cells as a control in 200 μL appropriate medium and Matrigel (1:1). […] Tumors, blood, muscle tissue, and organs were extracted, weighed, and activity uptake of the samples was measured in the gamma counter. Results were expressed as percentage of injected dose per gram tissue (% ID/g). […] After reconstruction, acquired data was viewed and analyzed with PMOD software (PMOD Technologies Ltd., Zurich, Switzerland). […] Near-infrared in vivo fluorescence imaging was performed with an In-Vivo MS FX PRO small animal imaging system (Bruker Biospin Corporation, Woodbridge, CT, USA). […] An appropriate filter set (excitation = 730 nm and emission = 790 nm) was used for acquiring the Sulfo-Cy7-FSC-peptide - fluorescence in vivo. […]

A short description of data set [3]: in vitro. Format: in vitro ADME, human. To be noted: human, serum. The method, then: as §1, with “First, the columns were centrifuged at 750 rcf for 1 min to remove the storage buffer. After adding 25 μL of incubation solution columns were centrifuged again for 2 min with 2000 rcf.” left out
A short description of data set [4]: in vivo. To be noted: mouse. On the procedure: All animal experiments were conducted in accordance with regulations and guidelines of the Czech Animal Protection Act (No. 246/1992), and with the approval of the Czech Ministry of Education, Youth, and Sports (MSMT-22421/2013–12), and the institutional Animal Welfare Committee of the Faculty of Medicine and Dentistry of Palacky University in Olomouc. The studies were performed using female 8–10-week-old athymic BALB/c nude mice (Envigo, Horst, The Netherlands). The number of animals was reduced as much as possible (n = 3 per group and time point for all experiments) and retro-orbital (r.o.) tracer injection as well as small animal imaging was carried out under 2% isoflurane anesthesia (FORANE, Abbott Laboratories, Abbott Park, IL, USA) to minimize animal suffering.
Tumor xenografts were established near the front shoulder of mice by subcutaneous injection of 5 × 10^6 cells (U-87 MG) or 2 × 10^6 cells (A431-CCK2R) and the same amount of A431-mock cells as a control in 200 μL appropriate medium and Matrigel (1:1). The tumors were allowed to grow until they had reached a volume of 0.2 to 0.5 cm^3. To evaluate ex vivo biodistribution mice were injected with 1–2 MBq (0.05–0.14 nmol) of radiotracer per mouse and mice were sacrificed by cervical dislocation after 30 and 90 min for [^68Ga]Sulfo-Cy7-FSC-RGD and after 1 and 2 h in the case of [^68Ga]Sulfo-Cy7-FSC-MG. Tumors, blood, muscle tissue, and organs were extracted, weighed, and activity uptake of the samples was measured in the gamma counter. Results were expressed as percentage of injected dose per gram tissue (% ID/g). In vivo PET and CT images were acquired with an Albira PET/SPECT/CT small animal imaging system (Bruker Biospin Corporation, Wood-bridge, CT, USA). Xenograft bearing mice were injected with radiolabeled peptides in a dose of ~5 MBq corresponding to 1–2 μg (0.25–0.58 nmol) of peptide per mouse. Anaesthetized animals were positioned prone head first in the Albira system before the start of imaging. Static PET/CT imaging was carried out 30 and 90 min p.i. for [^68Ga]Sulfo-Cy7-FSC-RGD. Animals injected with [^68Ga]Sulfo-Cy7-FSC-MG were imaged 1 and 2 h p.i. A 10 min PET scan (axial FOV 148 mm) was performed, followed by a CT scan (axial FOV 65 mm, 45 kVp, 400 μA, at 400 projections). Scans were reconstructed with the Albira software (Bruker Biospin Corporation, Woodbridge, CT, USA) using the maximum likelihood expectation maximization (MLEM) and filtered backprojection (FBP) algorithms. After reconstruction, acquired data was viewed and analyzed with PMOD software (PMOD Technologies Ltd., Zurich, Switzerland). 3D images were obtained using VolView software (Kitware, Clifton Park, NY, USA). Near-infrared in vivo fluorescence imaging was performed with an In-Vivo MS FX PRO small animal imaging system (Bruker Biospin Corporation, Woodbridge, CT, USA). Sulfo-Cy7-FSC-MG and Sulfo-Cy7-FSC-RGD were injected in a dose of 0.25–0.58 nmol per mouse and after supine head first positioning, imaging was conducted in various time intervals up to 72 h p.i. An appropriate filter set (excitation = 730 nm and emission = 790 nm) was used for acquiring the Sulfo-Cy7-FSC-peptide - fluorescence in vivo. Identical illumination settings (acquisition time = 15 s, filters = 730/790 nm, f-stop = 2.8, field of view = 100 mm, and binning = 4 × 4) were used for acquiring all images, and fluorescence emission was normalized to photons/s/mm^2. Images were acquired and analyzed using Bruker MI SE software (Bruker Biospin Corporation, Woodbridge, CT, USA).

The test system of data set [5] is A431-CCK2R cells. Kind of data set: CCK-2 receptor internalization assay (radioligand). It is filed as cell-based, human. The note with it: for unspecific membrane bound amount: blocked with pentagastrin. The method, then:
To determine the receptor-mediated radioligand uptake A431-CCK2R cells were seeded into 12-well plates (Nunc, Thermo Scientific) with a density of 2 × 10^6 cells per well and left to grow overnight at 37 °C. At the day of the experiment each well was washed twice with fresh internalization medium (DMEM containing 1% fetal bovine serum) followed by the adjustment to a final volume of 1.2 mL with media. After dividing the plate into an unblocked and blocked compartment (6 wells each) 150 μL PBS/0.5% bovine serum albumin (BSA) solution or 150 μL blocking solution (100-fold molar excess of pentagastrin in PBS/0.5% BSA solution) were added and left for 10 min at room temperature. Hereafter, 150 μL of the radiolabeled peptide (1 nM [^68Ga]Sulfo-Cy7-FSC-MG in PBS/0.5% BSA approximately 3 × 10^4 cpm) was added to each well followed by incubation at 37 °C for 1 and 2 h, respectively. After removal of the supernatant each well was washed two times with 1 mL ice-cold internalization medium and supernatants were collected in plastic vials (wash fraction). For determination of the membrane bound radiotracer cells were incubated twice with 1 mL ice-cold 0.05 M glycine-buffer (pH 2.8) for 5 min collecting the supernatants. Finally, internalized fraction was obtained by lysing the cells with 1 mL of 2 M sodium hydroxide solution (NaOH) two times and collecting the samples. To determine the amount of radiotracer of each fraction all samples were taken for γ-counter measurement against standard solution, i.e., 150 μL radiotracer.

The format of data set [6] is physicochemical. To be noted: pH 7.4. On the procedure: as §1, with “First, the columns were centrifuged at 750 rcf for 1 min to remove the storage buffer. After adding 25 μL of incubation solution columns were centrifuged again for 2 min with 2000 rcf.” left out

*1 amine or outer side, *2 acyl side, *3 side chain or, on linkers, in order; H or OH if unused. Where a SMILES comes first, the peptide text is derived from it. Bridges are numbered along the chain shown (N, C = ends). Roman numbers before positions name the chains, in order. [ ]: non-standard residue; d: D form. X1 = C/C1=C/C(=O)N(O)CCC[C@H](NC(=O)CCN2C(=O)CC([*:2])C2=O)C(=O)OCC/C(C)=C\C(=O)N(O)CCC[C@H](NC(=O)CCN2C(=O)CC([*:1])C2=O)C(=O)OCC/C(C)=C\C(=O)N(O)CCC[C@H](NC(=O)CCCCC[N+]2=C(C=CC3=CC(=CC=C4N(C)c5ccc(S(=O)(=O)[O-])cc5C4(C)C)CCC3)C(C)(C)c3cc(S(=O)(=O)O)ccc32)C(=O)OCC1; Mpa = O=C(O)CCS

Take `CSCC[C@H](NC(=O)[C@H](Cc1c[nH]c2ccccc12)NC(=O)CNC(=O)[C@H](Cc1ccc(O)cc1)NC(=O)[C@H](C)NC(=O)[C@@H](CCC(=O)O)NC(=O)CCSC1CC(=O)N(CCC(=O)N[C@H]2CCCN(O)C(=O)/C=C(/C)CCOC(=O)[C@@H](NC(=O)CCN3C(=O)CC(SCCC(=O)N[C@H](CCC(=O)O)C(=O)N[C@@H](C)C(=O)N[C@@H](Cc4ccc(O)cc4)C(=O)NCC(=O)N[C@@H](Cc4c[nH]c5ccccc45)C(=O)N[C@@H](CCSC)C(=O)N[C@@H](CC(=O)O)C(=O)N[C@@H](Cc4ccccc4)C(N)=O)C3=O)CCCN(O)C(=O)/C=C(/C)CCOC(=O)[C@@H](NC(=O)CCCCC[N+]3=C(C=CC4=CC(=CC=C5N(C)c6ccc(S(=O)(=O)[O-])cc6C5(C)C)CCC4)C(C)(C)c4cc(S(=O)(=O)O)ccc43)CCCN(O)C(=O)/C=C(/C)CCOC2=O)C1=O)C(=O)N[C@@H](CC(=O)O)C(=O)N[C@@H](Cc1ccccc1)C(N)=O` (stereo partly drawn) [[^68Ga]Sulfo-Cy7-FSC-MG, metal not drawn] (I: [Mpa][dE]AYGWMDF-NH2 / II: [Mpa][dE]AYGWMDF-NH2; linker I:1-II:1 via X1): the fraction remaining at 1 h, 2 μM in data set [1] was 95.1 ± 0.2%. In data set [1], the fraction remaining at 2 h, 2 μM was determined as 94.9 ± 0.4%. This compound had a fraction remaining at 4 h, 2 μM in data set [1] of 94.4 ± 0.1%. In data set [2], the PET target-to-organ contrast result is recorded as “moderate target-to-organ contrast”. In addition, the unbound share (fraction unbound) at 2 μM in data set [3] was less than 0.3. Moreover, the tissue to tissue ratio in data set [4] (female, athymic BALB/c nude, total radioactivity) was less than 0.5. The tissue uptake at 2 h is 71.1 ± 7 %ID/g in data set [4] (accumulation in kidneys), 25.7 ± 3.3 %ID/g in data set [4] (accumulation in liver tissue), 3 ± 0.5 %ID/g in data set [4] (blood) and 3.8 ± 0.7 %ID/g in data set [4] (tumor uptake). Also, the tissue uptake at 1 h in data set [4] (blood) was found to be 4.7 ± 0.7 %ID/g; in data set [4] (tumor uptake), 3.1 ± 0.9 %ID/g. For the same compound, the internalized activity in data set [5] (blocked with pentagastrin in 100-fold molar excess, 1 h) is reported as 0.19 ± 0.1%; in data set [5] (blocked with pentagastrin in 100-fold molar excess, 2 h) it was 0.44 ± 0.41%; in data set [5] (unblocked, 1 h incubation), 4.56 ± 0.39 % of total activity; in data set [5] (unblocked, 2 h incubation), 8.75 ± 1.32 % of total activity. The “unspecific membrane bound amount” value in data set [5] (1 h) was 0.13 ± 0.06%; in data set [5] (2 h), 0.25 ± 0.23%. Moreover, the “unspecific membrane bound amount of activity” value in data set [5] (unblocked, 1 h) is reported as 0.21 ± 0.08%; in data set [5] (unblocked, 2 h), 0.31 ± 0.29%. In data set [6], this compound displayed a logD of -1.9 ± 0.17.

A word on the fraction remaining: it is the share of the starting amount still present when the sample was taken. High values mean greater stability, low ones a greater loss. Broadly, the fraction unbound is free concentration divided by total concentration. As usually defined, the tissue uptake is the share of the injected amount in each gram of the tissue. Low readings indicate little accumulation, high ones strong accumulation. One may read the logD as lipophilicity at a set pH, counting ionised and neutral species.
